Data: US20200200749A1

Legend:
[1] = biological target: BDBV GP on virus (BDBV (Bundibugyo ebolavirus)); assay: cell-based or functional assay
[2] = biological target: BDBV GP (recombinant, full-length extracellular domain) (BDBV (Bundibugyo ebolavirus)); assay: ELISA, GP coated on plate, mAb serially diluted

Binder	IC50, neutralization of BDBV [1]	EC50 [2]
BDBV223 (antibody, V domains shown) VH: QVQLQQWGAGLLKPSETLSLTCAVYGGSFTTTYWNWIRQPPGKGLEWIGEVNYSGNANYNPSLKGRVAISVDTSKNQFSLRLNSVTAADTAIYYCTSRIRSHIAYSWKGDVWGKGTTVTVSS VL: EIVMTQSPGTLSLSPGERATLSCRASQSVPRNYIGWFQQKPGQAPRLLIYGASSRAAGFPDRFSGSGSGTDFTLTITRLEPEDFAMYYCHQYDRLPYTFGQGTKLEIK	0.005 µg/mL	
EBOV62 (antibody, V domains shown) VH: EVQLVESGGGLVQPGGSLRLSCAASGFTFSSYWMSWVRQAPGKGLEWVANIKQDGSAKYYVDSVKGRFTISRDNAKNSLYLQMNSLRAEDTAVYYCARDGLLGISDLLYPIYYFDYWGQGTLVTVSS VL: DIVMTQSPSSLSASVGDRVTITCRASQNIGSYLNWYQQKPGKAPNLLMYAASSLQSGVPSRFSGSGSGTDFTLTITSLQPEDFATYYCQQSYSIPRTFGQGTQLEIK		508 µg/mL
